According to publication PMC2873897 (Nature structural & molecular biology, 2010):
Each block holds one molecule with its values, some of them ahead of it.

Experiments:
[1] = biological target: C-cadherin ectodomain (Xenopus laevis) (UniProt P33148); assay: AUC; settings: cited from earlier work
[2] = biological target: T cadherin EC1-2 I2A (mouse); assay: AUC
[3] = biological target: E cadherin EC1-2 W2A (mouse); assay: AUC
[4] = biological target: E cadherin EC1-2 wild-type (WT) (mouse); assay: AUC
[5] = biological target: T cadherin EC1-2 R14E/D140K (charge reversal rescue mutant) (mouse); assay: AUC
[6] = biological target: T cadherin EC1-2 G extension (mouse) (UniProt Q9WTR5); assay: AUC
[7] = biological target: T-cadherin EC1-2 wild-type (mouse) (UniProt Q9WTR5); assay: SPR
[8] = biological target: E-cadherin ectodomain (Mus musculus) (UniProt P09803); assay: AUC; settings: cited from earlier work
[9] = biological target: E cadherin EC1-2 MR extension (mouse); assay: AUC
AUC [10] = biological target: the molecule itself; assay: AUC
AUC [11] = biological target: the molecule itself; assay: AUC; remark: listed apart in the source

Molecule: C-cadherin ectodomain (from UniProt P33148)
Kd [1]: 64 µM

Molecule: T cadherin EC1-2 I2A (domain or fragment)
Kd [2]: 37.1 µM

Molecule: E cadherin EC1-2 W2A (domain or fragment)
Kd [3]: 916 µM

Molecule: T cadherin EC1-2 G extension (from UniProt Q9WTR5 140-355) (domain or fragment)
Kd [6]: 16.5 µM

Molecule: E-cadherin ectodomain (from UniProt P09803)
Kd [8]: 80 µM

Molecule: E cadherin EC1-2 MR extension (domain or fragment)
Kd [9]: 258 µM

Molecule: T-cadherin EC1-2 R14S D140S (domain or fragment)
fold reduction of the binding level against wild type [7]: > 5 fold

B1: T-cadherin EC1-2 wild-type (domain or fragment, mouse)
chain: IVVSPILIPENQRQPFPRDVGKVVDSDRPEGSKFRLTGKGVDQDPKGTFRINENTGSVSVTRTLDRETIATYQLYVETTDASGKTLEGPVPLEVIVIDQNDNRPIFREGPYIGHVMEGSPTGTTVMRMTAFDADDPATDNALLRYNIRQQTPDKPSPNMFYIDPEKGDIVTVVSPALLDRETLENPKYELIIEAQDMAGLDVGLTGTATATIVIDD
Kd (AUC [10]): 41.4 ± 1.7 µM
stoichiometry N (AUC [11]): 2

More lines, now with the values ahead:

Kd [4]: 98.6 µM
Molecule: E cadherin EC1-2 wild-type (WT) (domain or fragment)

Kd [5]: 149 µM
Molecule: T cadherin EC1-2 R14E/D140K (charge reversal rescue mutant) (domain or fragment)

fold reduction of the binding level against wild type [7]: 5 fold
Molecule: T-cadherin EC1-2 R14S (domain or fragment)
